Some targets named below: EGFR (h) (human (h), UniProt P00533 696-1210, limits assumed); MSK1 (h) (human (h), UniProt O75582 1-802); MAPKAP-K2 (h) (human (h), UniProt P49137 46-400, limits assumed); Tie2 (h) (human (h), UniProt Q02763 771-1124, limits assumed); PKA (h) (human (h), UniProt P17612 1-351); MAPKI (h) (human (h), UniProt P28482 1-360, limits assumed); TrkA (h) (human (h), UniProt P04629 441-796, limits assumed); FGFR1 (h) (human (h), UniProt P11362 456-765, limits assumed); MSK2 (h) (human (h), UniProt O75676 1-772, limits assumed); cKit (h) (human (h), UniProt P10721 544-976, limits assumed); PDGFRβ (h) (human (h), UniProt P09619 558-1106, limits assumed); ASK1 (h) (human (h), UniProt Q99683 649-946, limits assumed); MEKI (h) (human (h), UniProt Q02750 1-393); MAPKAP-K3 (h) (human (h), UniProt Q16644 1-382, limits assumed); CKIB (h) (human (h)); CaMKI (h) (human (h), UniProt Q14012 1-370, limits assumed); KDR (tl) (UniProt P35968 790-1356, limits assumed).

Holding throughout (experiment): cell-based or functional assay
A further assay concerns the target T1, MKK6 (h) (human (h), UniProt P52564 1-334, limits assumed).
T1 sequence (looked up): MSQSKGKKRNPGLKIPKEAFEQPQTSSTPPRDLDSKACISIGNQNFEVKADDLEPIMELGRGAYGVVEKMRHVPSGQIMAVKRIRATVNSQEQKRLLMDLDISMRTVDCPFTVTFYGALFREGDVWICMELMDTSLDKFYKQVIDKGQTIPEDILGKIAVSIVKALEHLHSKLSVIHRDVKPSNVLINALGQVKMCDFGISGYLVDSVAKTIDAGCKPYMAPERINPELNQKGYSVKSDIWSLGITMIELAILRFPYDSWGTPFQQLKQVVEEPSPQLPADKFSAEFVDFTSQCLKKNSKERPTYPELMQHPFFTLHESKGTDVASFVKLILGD

Another assay concerns the target T2, PKG1β (h) (human (h), UniProt Q13976-2 1-686).
T2 sequence (looked up): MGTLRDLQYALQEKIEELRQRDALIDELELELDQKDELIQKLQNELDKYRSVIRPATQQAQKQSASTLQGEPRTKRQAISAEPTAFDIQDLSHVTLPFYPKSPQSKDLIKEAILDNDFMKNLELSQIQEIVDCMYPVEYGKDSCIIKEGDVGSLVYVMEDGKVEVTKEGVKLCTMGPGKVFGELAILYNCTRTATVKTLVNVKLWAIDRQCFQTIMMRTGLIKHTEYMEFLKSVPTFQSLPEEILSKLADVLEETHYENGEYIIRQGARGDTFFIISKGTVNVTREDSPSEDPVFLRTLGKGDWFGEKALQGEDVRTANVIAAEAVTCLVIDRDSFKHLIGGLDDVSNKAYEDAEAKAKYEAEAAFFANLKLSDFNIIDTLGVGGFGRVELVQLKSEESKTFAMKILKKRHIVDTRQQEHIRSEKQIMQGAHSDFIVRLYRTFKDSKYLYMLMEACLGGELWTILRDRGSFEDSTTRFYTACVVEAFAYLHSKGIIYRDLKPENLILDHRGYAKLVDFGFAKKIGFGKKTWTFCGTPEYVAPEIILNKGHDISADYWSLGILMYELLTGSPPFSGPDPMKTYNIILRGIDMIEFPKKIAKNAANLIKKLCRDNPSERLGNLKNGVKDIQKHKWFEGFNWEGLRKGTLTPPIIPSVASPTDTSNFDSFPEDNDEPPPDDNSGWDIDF

For the next assay, the target named is T3, Ret (h) (human (h), UniProt P07949 658-1114, limits assumed).
T3 sequence (looked up): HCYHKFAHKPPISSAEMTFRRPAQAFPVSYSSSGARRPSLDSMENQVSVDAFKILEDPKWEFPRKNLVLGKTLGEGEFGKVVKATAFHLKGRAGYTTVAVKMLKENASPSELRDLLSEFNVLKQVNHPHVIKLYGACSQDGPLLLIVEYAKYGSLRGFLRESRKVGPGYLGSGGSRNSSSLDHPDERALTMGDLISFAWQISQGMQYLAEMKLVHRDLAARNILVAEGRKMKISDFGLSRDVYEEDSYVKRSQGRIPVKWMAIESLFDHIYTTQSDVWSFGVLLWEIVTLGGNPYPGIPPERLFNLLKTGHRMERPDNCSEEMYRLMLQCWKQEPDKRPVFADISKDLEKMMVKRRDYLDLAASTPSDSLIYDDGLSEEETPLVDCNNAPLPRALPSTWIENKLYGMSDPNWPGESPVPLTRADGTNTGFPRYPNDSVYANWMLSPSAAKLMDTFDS

The text below walks through data of patent US20090149389A1 (PURDUE RESEARCH FOUNDATION, published 2009).

Chain of MSK1 (h) (O75582 whole entry): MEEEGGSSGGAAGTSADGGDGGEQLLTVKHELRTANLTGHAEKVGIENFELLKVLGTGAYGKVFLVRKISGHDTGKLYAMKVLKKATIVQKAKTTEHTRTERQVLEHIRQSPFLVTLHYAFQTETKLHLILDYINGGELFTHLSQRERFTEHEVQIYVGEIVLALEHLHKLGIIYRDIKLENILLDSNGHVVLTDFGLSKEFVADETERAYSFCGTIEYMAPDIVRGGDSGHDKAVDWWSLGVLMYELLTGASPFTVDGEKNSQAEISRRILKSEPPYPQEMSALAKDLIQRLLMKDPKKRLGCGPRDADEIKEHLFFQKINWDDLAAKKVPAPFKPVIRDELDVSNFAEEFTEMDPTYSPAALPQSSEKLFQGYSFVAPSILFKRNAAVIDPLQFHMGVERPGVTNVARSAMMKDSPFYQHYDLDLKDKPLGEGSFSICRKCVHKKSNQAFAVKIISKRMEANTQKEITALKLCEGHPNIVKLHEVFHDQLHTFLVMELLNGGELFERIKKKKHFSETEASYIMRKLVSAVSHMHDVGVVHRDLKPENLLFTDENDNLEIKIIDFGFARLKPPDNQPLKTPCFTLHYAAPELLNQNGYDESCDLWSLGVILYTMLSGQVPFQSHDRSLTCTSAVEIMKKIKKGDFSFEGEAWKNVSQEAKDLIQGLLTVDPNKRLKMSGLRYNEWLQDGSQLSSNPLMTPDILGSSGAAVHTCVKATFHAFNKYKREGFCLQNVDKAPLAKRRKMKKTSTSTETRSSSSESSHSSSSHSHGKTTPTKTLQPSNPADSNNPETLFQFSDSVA
Chain of Tie2 (h) (Q02763 771-1124 limits assumed): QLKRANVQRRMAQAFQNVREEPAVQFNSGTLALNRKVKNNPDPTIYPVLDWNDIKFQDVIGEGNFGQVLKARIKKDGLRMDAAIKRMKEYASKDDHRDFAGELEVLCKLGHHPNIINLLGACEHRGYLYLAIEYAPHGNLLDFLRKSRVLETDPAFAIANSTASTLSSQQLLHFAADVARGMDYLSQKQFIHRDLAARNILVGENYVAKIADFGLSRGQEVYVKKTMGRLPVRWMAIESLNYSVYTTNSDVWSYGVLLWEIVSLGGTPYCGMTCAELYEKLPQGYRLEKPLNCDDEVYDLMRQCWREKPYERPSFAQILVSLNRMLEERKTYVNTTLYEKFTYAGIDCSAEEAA
Chain of MAPKAP-K3 (h) (Q16644 whole entry): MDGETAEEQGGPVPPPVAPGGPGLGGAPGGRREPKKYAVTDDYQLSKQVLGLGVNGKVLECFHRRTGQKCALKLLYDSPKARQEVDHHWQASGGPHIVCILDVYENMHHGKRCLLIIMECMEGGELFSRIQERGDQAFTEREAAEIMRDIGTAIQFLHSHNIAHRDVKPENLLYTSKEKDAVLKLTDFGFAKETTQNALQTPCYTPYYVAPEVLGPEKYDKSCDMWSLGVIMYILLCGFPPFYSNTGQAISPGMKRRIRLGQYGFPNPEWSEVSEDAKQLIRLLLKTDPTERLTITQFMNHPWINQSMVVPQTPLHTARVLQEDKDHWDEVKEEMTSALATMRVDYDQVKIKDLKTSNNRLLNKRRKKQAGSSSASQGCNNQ
Chain of cKit (h) (P10721 544-976 limits assumed): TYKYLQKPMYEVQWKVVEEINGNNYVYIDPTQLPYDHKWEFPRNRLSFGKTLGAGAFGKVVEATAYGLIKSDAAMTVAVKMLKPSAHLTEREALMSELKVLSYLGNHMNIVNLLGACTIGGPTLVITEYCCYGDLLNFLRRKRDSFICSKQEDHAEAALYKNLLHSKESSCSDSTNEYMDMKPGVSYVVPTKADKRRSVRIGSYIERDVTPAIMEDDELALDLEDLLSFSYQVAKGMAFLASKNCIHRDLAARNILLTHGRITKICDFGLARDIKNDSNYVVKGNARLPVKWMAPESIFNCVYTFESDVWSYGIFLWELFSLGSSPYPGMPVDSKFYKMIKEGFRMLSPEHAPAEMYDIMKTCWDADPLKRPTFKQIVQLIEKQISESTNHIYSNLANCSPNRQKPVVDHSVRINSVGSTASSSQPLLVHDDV
Chain of MAPKI (h) (P28482 whole entry): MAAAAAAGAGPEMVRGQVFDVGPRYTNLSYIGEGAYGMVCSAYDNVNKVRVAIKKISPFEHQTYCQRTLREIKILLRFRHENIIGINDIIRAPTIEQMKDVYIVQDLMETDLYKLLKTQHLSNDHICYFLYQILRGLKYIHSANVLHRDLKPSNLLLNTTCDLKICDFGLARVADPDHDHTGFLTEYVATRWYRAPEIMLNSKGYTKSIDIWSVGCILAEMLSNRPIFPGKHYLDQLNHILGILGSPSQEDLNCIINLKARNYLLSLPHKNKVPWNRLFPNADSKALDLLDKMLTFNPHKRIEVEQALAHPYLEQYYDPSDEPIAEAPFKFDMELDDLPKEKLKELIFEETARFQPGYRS
Chain of MSK2 (h) (O75676 whole entry): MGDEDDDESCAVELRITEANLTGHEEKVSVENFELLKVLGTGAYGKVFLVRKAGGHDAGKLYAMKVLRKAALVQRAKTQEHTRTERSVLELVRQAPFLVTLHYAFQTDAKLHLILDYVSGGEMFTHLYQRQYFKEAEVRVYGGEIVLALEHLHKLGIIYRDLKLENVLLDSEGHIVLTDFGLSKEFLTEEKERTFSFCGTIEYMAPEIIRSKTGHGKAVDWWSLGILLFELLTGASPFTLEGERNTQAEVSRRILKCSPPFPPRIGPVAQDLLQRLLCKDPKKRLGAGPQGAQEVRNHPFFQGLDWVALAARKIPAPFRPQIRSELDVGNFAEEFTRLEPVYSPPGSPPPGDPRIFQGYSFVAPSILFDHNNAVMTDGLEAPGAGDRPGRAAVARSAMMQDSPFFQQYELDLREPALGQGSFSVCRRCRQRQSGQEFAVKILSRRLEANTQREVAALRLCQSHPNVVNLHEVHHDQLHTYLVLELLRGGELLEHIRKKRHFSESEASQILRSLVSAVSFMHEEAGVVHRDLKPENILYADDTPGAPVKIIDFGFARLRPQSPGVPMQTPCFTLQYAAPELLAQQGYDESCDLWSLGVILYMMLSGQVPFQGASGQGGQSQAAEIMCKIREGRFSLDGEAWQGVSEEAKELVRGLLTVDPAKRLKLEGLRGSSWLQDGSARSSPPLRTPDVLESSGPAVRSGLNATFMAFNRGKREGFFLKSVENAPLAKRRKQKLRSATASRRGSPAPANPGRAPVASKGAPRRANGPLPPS
Chain of PDGFRβ (h) (P09619 558-1106 limits assumed): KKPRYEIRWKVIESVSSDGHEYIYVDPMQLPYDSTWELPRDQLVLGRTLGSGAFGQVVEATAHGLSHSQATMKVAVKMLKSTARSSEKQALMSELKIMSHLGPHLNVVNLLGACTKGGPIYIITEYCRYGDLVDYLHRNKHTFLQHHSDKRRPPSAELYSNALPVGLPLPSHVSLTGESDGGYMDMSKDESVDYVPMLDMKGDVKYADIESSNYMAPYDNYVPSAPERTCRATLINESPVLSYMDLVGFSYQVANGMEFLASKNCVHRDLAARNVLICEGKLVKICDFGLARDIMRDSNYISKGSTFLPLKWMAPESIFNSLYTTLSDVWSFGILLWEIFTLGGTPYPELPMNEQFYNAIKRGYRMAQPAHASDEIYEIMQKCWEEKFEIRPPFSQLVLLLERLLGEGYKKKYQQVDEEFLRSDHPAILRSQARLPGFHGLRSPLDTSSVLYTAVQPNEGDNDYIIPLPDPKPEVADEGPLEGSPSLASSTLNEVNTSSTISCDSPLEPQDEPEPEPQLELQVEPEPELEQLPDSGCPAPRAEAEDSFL
Chain of MAPKAP-K2 (h) (P49137 46-400 limits assumed): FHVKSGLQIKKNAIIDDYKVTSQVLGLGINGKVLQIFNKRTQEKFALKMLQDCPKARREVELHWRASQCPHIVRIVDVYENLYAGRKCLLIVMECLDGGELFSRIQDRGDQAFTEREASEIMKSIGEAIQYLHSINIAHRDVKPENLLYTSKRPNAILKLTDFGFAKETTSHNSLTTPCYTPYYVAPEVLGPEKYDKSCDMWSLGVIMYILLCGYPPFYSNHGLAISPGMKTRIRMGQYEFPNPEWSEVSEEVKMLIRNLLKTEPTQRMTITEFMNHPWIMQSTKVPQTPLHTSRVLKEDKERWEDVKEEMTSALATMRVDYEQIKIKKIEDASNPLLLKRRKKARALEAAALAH
Chain of ASK1 (h) (Q99683 649-946 limits assumed): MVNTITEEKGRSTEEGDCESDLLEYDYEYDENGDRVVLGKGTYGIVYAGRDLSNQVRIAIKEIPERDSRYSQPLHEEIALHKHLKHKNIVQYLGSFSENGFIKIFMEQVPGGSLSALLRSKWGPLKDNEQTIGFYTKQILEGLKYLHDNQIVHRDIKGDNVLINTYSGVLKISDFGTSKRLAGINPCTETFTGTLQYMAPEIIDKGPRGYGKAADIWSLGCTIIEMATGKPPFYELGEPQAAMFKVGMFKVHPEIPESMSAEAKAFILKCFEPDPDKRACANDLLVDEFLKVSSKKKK
Chain of KDR (tl) (P35968 790-1356 limits assumed): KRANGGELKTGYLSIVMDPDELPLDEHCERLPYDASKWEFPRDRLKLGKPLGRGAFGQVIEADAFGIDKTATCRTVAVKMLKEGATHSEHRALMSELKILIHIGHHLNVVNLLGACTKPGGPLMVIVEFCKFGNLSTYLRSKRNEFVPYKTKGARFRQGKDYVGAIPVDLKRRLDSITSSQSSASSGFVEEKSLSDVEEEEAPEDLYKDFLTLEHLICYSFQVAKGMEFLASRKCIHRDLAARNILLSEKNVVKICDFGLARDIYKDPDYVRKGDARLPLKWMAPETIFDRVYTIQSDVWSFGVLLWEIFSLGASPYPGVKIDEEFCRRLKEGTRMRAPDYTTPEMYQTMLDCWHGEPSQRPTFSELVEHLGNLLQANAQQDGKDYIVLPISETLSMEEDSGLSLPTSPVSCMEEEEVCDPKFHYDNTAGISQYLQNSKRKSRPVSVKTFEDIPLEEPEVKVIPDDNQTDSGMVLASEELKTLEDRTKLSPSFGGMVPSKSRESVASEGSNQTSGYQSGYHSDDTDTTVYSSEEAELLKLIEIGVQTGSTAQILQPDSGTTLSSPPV

B1: KAFAKLAARLYRKALARQLGVAA (peptide)
peptide: KAFAKLAARLYRKALARQLGVAA
For the molecule B1, the “Profile-1 @ = 100 µm (kinase profiler assay)” value (shortened to “Profile-1 @ = 100 µm”) with EGFR (h) was determined as 16; in the assay with MSK1 (h) it was 13; with MAPKAP-K2 (h), 8; with Tie2 (h) it was 8; with PKA (h), 103; with MKK6 (h), 48. Further, the “Profile-1 @ = 100 µm” value came to 108 with MAPKI (h); 16 with TrkA (h); 35 with FGFR1 (h); 30 in the assay with MSK2 (h); 24 with PKG1β (h); 31 with cKit (h). For the same molecule, the “Profile-1 @ = 100 µm” value with PDGFRβ (h) came out at 66; in the assay with ASK1 (h) it was 48; in the assay with MEKI (h), 66; in the assay with MAPKAP-K3 (h), 17; in the assay with CKIB (h), 97; with CaMKI (h) it was 0. Besides, the “Profile-1 @ = 100 µm” value with KDR (tl) was 56; with Ret (h) it was 117.
